The values below come from PMC9088182 (Cell reports, 2022).

The series concerns the molecule itself. In words: cryo-EM structure.

B1: TRPV5 Thr709Asp phosphomimetic mutant (rabbit) (natural protein)
chain: MGACPPKAKGPWAQLQKLLISWPVGEQDWEQYRDRVNMLQQERIRDSPLLQAAKENDLRLLKILLLNQSCDFQQRGAVGETALHVAALYDNLEAATLLMEAAPELAKEPALCEPFVGQTALHIAVMNQNLNLVRALLARGASVSARATGAAFRRSPHNLIYYGEHPLSFAACVGSEEIVRLLIEHGADIRAQDSLGNTVLHILILQPNKTFACQMYNLLLSYDEHSDHLQSLELVPNHQGLTPFKLAGVEGNTVMFQHLMQKRKHVQWTCGPLTSTLYDLTEIDSWGEELSFLELVVSSKKREARQILEQTPVKELVSFKWKKYGRPYFCVLASLYILYMICFTTCCIYRPLKLRDDNRTDPRDITILQQKLLQEAYVTHQDNIRLVGELVTVTGAVIILLLEIPDIFRVGASRYFGQTILGGPFHVIIITYASLVLLTMVMRLTNMNGEVVPLSFALVLGWCSVMYFARGFQMLGPFTIMIQKMIFGDLMRFCWLMAVVILGFASAFHITFQTEDPNNLGEFSDYPTALFSTFELFLTIIDGPANYSVDLPFMYCITYAAFAIIATLLMLNLFIAMMGDTHWRVAQERDELWRAQVVATTVMLERKMPRFLWPRSGICGYEYGLGDRWFLRVENHHDQNPLRVLRYVEAFKCSDKEDGQEQLSEKRPSTVESGMLSRASVAFQTPSLSRTTSQSSNSHRGWEILRRNDLGHLNLGLDLGEGDGEEVYHF
Consider B1, for which the binding result is listed as “binds”.
